# Reference: the nanobody polyreactivity screen of Harvey et al. (2022)
# Assay: yeast display, Sf9 membrane polyspecificity reagent, FACS + sequencing; frameworks hold sequencing errors
# Method in brief: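 After 36–48 hours of galactose induction, yeast (Saccharomyces cerevisiae BJ5465) displaying a synthetic nanobody library were stained at 4 °C for 1 hour with 10% biotinylated, detergent-solubilized Sf9 membrane reagent. Streptavidin microbeads enriched the stained cells before FACS sorting into low and high (top ~1%) gates on anti-HA and streptavidin fluorescence. Each clone's polyreactivity label reflects its gate of origin.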
sequence,measurement,value
QVQLVESGGGLVQAGGSLRLSCAASGRIFYRYARGWYRQAPGKEREFVAAITSGTSTNYADSVKGRFTISRDNAKNSLYVQRNSLKPEDTAVYYCATRYYWKYAEYDYWGQGTQVTVSS,polyreactivity (PSR sort gate),high polyreactivity
QFQLVESGRGLVQAGGGLRLSCAASGLTFGYYTMGWYRQAPGKERELVAAINYSGGSTYYADSVKGRFTISRDNAKNTVYLQMNCLKPEDSAVYYCAAEGPVYTTYEYWGQGNQVTVSS,polyreactivity (PSR sort gate),low polyreactivity
QVQLVESGGGLVQAGGSLRLSCAASGRIFNYYAMGWYRQAPGKERELVAAISSGGSTYYADSVKGRFTISRDNAKNTVYLQMNSLKPEDTAVYYCAAAYGDYGYWGQGTQVTVSS,polyreactivity (PSR sort gate),high polyreactivity
QVQLVESGGGLVQAGGSLRLSCAASGFTFVSNDMGWYRQAPGKERELVAVITTGDTSTSYADSVKGRFTISRDNAKNTVYLQMNSLKPEDTAVYYCAADPHDTVRHDALVELEYWGQGTQVTVSS,polyreactivity (PSR sort gate),low polyreactivity
QVQLVESGVGLVQAGGSLRLSCAASGRIFIKYAMGWYRQAPGKEREFVAAISGRGGSTYYADSVKGRFTISRDNAKNTVYLQMNSLKPEDTAVYYCAKRFFSSGTAAGMYYWGQGTQVTVSS,polyreactivity (PSR sort gate),high polyreactivity
QVQLVESGGGLVQAGGSLRLSCAASGIPFYVKDMGWYRQAPGKDWDCVAAISYRGGSTYYADSVKGRFTISRDNAKNTVYLQMNSLKPEDTAVYYCAADYNYWSPHRDDYWGQGTQVTVSS,polyreactivity (PSR sort gate),low polyreactivity
QVQLVESGGGLVQAGGSLRLSCAASGSTFYSYAMVWYRPARGPERELVAAITSGGRTYYADSVKGRFTISRDNAKNTVYLQMNCLKPEDTAVYYCSADLPVFGGYRSNRFGYWGQGTQVTVSS,polyreactivity (PSR sort gate),high polyreactivity
QVQLVESGGGLVQAGGSHRLSCAASGITFARYAIGWSRQAPGKEREFLAAISWSGGNTYYADSVKGRFTISRDYAKNTVYLQLNSLKTEDTAVYYCAAESKGSWRYYYRFYYWGQGTQVTVSS,polyreactivity (PSR sort gate),high polyreactivity
QVQLVESGAGLVQAGGSLRLSCAASGRTIRSYAMGWYRQATGKERELVAAISSGGRTYYADSVKGRFTISRDNAKNNVYLQMNSLKPEDTAVYYCAVRYRVYIFQYGYWGQGTQVTVSS,polyreactivity (PSR sort gate),high polyreactivity
QVPLVESGGGLVQAGGSLRLSCAAYGFTFWTYAMGWYRQAPGKDRELVAAISRSAGRTYYADSVKGRFTISRDNAKNTVYLQMNSLKPEVSAVYYCNARAGYERYGYWGQGSQVTVSS,polyreactivity (PSR sort gate),high polyreactivity
QVQLVESGGGLVQAGGSLRLSCAASGSIFYPYAMGWYRPAPGKERELVAGITGGGRTYYADSVKGRFTISRDNAKNTVYLQMNSLKPEDTAVFYCAAVDFVSYYIPFHYEYYWGQGTQVTVSS,polyreactivity (PSR sort gate),low polyreactivity
QVQLVESGGGLVQAGGSLRLSCAASGFTFDIYAMGWYRQAPGKERELVADITSGGSTDYADSVKGRFTISRDNAKNTVYVQMNSLKPEDTAVYYSNAAVFYDPEWQYDYWGQGTQVTVSS,polyreactivity (PSR sort gate),low polyreactivity
QVQLVESGGGLVQAGGSLRLSCAASGITFTDYAMGWYRQAPGKERELVAAISSSGGRTYYADSVKGRFTISRDNAKNTVYLQMNSLKPEDTAVYYCAARDYDRTQSGRDYWGQGTQVTVSS,polyreactivity (PSR sort gate),high polyreactivity
QVQLVESGGGLVQAGGSLRLSCAASGRIFYLYGMGWYRQAPGKERELVAGITGSGGNTYYADSVKGRFTISRDNAMNTVYLQMNSLKPEDTAVYYCIARFRARPRMGYWGQGTQVTLSS,polyreactivity (PSR sort gate),high polyreactivity
QVQLVESGGGLVQAGGSLRLSCAASGRTSVIYAMGWYRKAPGKERELVASIRRGGSTSYADSVKGRFTISRDNAKNTVYLQMNSLKPEDTAVYYCAARKRSVYGTEYDYWGQGTQVTVSS,polyreactivity (PSR sort gate),high polyreactivity
QVQLVESGGGLVQAGGSLRLSCADSGSTFGYYAMGWYRQAPGKERELVAGISSGGTTKYADSVKGRFTISRDNAKNTVYLQMNSLKPVDTAVYYCAARFRRTRVTYYYWGQGTQVTVSS,polyreactivity (PSR sort gate),high polyreactivity
QVQLVESGGGLVQAGGSLRFSCAASGSIFGKNAIGWYRQAPGKERELVAAITRSGGSTYYADSVKGRFTISRDNAKNTVYLQMNSLKPEDTAVYYCNAVRVRVTSHRIRQLDYGYWGQGTQVTVSS,polyreactivity (PSR sort gate),low polyreactivity
